In patent publication US20200207841A1 (MIT, published 2020):
Like-named read-outs stand apart in the source and are kept apart here.

Assays:
EDIII-DV3 [1] = target: T1, EDIII-DV3 (Dengue virus serotype 3 (DV3), UniProt Q6YMS3 579-671); assay: SPR
T1 construct: also called EDIII of DV3; EDIII-DVIII

EDIII-DV1 [2] = target: T2, EDIII-DV1 (Dengue virus serotype 1 (DV1), UniProt P17763 581-673); assay: SPR
T2 construct: also called EDIII of DV1; EDIII-DVI

EDIII-DV2 [3] = target: T3, EDIII-DV2 (Dengue virus serotype 2 (DV2), UniProt P14337 581-673); assay: SPR
T3 construct: also called EDIII of DV2; EDIII-DVII

EDIII-DV3 [4] = target: T1, EDIII-DV3; assay: SPR; remark: listed apart in the source
EDIII-DV1 [5] = target: T2, EDIII-DV1; assay: SPR; remark: listed apart in the source
EDIII-DV2 [6] = target: T3, EDIII-DV2; assay: SPR; remark: listed apart in the source
EDIII-DV3 [7] = target: T1, EDIII-DV3; assay: competition ELISA
EDIII-DV1 [8] = target: T2, EDIII-DV1; assay: competition ELISA
EDIII-DV2 [9] = target: T3, EDIII-DV2; assay: competition ELISA
[10] = target: DV1 (Dengue virus serotype 1, virus used in FRNT) (Dengue virus serotype 1 (DV1)); assay: cell-based or functional assay
[11] = target: DV2 (Dengue virus serotype 2, virus used in FRNT) (Dengue virus serotype 2 (DV2)); assay: cell-based or functional assay
[12] = target: DV3 (Dengue virus serotype 3, virus used in FRNT) (Dengue virus serotype 3 (DV3)); assay: cell-based or functional assay
EDIII-DV3 [13] = target: T1, EDIII-DV3
EDIII-DV1 [14] = target: T2, EDIII-DV1
EDIII-DV2 [15] = target: T3, EDIII-DV2

B1: 4E11 WT (antibody, V domains shown)
VH: VKLLEQSGAELVKPGASVRLSCTASGFNIKDTYMSWVKQRPEQGLEWIGRIDPANGDTKYDPKFQGKATITADTSSNTAYLHLSSLTSGDTAVYYCSRGWEGFAYWGQGTLVTVSA
VL: ELVMTQTPASLAVSLGQRATISCRASENVDRYGNSFMHWYQQKAGQPPKLLIYRASNLESGIPARFSGSGSRTDFTLTINPVEADDVATYFCQRSNEVPWTFGGGTKLEIKR
notes: also called wt 4E11; mAb 4E11
- Kd (EDIII-DV3 [1]): 7.58 nM
- Kd (EDIII-DV1 [2]): 0.5 nM
- Kd (EDIII-DV2 [3]): 6.2 nM
- koff (EDIII-DV3 [4]): 0.0102 s⁻¹
- kon (EDIII-DV3 [4]): 1.34e+06 M⁻¹ s⁻¹
- koff (EDIII-DV1 [5]): 0.000551 s⁻¹
- kon (EDIII-DV1 [5]): 1.11e+06 M⁻¹ s⁻¹
- kon (EDIII-DV2 [6]): 1.98e+06 M⁻¹ s⁻¹
- Kd (EDIII-DV3 [7]): 21.8 nM
- Kd (EDIII-DV1 [8]): 0.328 nM
- Kd (EDIII-DV2 [9]): 5.2 nM
- IC50 (read off the curve): neutralisation, relative infectivity against [4E11] [10]: ~0.06 µg/mL
- IC50 (read off the curve): neutralisation, relative infectivity against [4E11] [11]: ~0.03 µg/mL
- IC50 (read off the curve): neutralisation, relative infectivity against [4E11] [12]: ~0.5 µg/mL
- Kd (EDIII-DV3 [13]): 21.8 nM
- Kd (EDIII-DV1 [14]): 0.328 nM
- Kd (EDIII-DV2 [15]): 5.2 nM
